Assay results from paper PMC7263513.

What was measured:
[1] = biological target: SARS-CoV-2 receptor binding domain (RBD) (Severe acute respiratory syndrome coronavirus 2 (2019-nCoV) (SARS-CoV-2).) (UniProt P0DTC2)
[2] = biological target: SARS-CoV-2 receptor binding domain (RBD) (SARS-CoV-2) (UniProt P0DTC2)

| Substance | IC50 of neutralisation of SARS-CoV-2 pseudovirus (293T (ACE2) cells) [1] [µg/mL] | IC50 of neutralisation of SARS-CoV-2 pseudovirus (293T (ACE2) cells) [2] [µg/mL] |
| --- | --- | --- |
| C002 (antibody) | 0.00888 |  |
| C104 (antibody) | 0.0233 |  |
| C105 (antibody) | 0.0261 |  |
| C110 (antibody) | 0.0184 |  |
| C144 (antibody) |  | 0.00691 |
